From paper PMC5085163 come the findings set out here.

The assay concerns the target transducin-like enhancer of split 1 (TLE1) (human (endogenous in synovial sarcoma and control cell lines and tumor tissue)) (UniProt Q04724). Briefly: proximity ligation; Duolink In Situ Red kit on cultured cells fixed with 3% formaldehyde and permeabilized with 0.1% Triton X-100; rabbit anti-SS18 and mouse anti-TLE1 primary antibodies overnight at 4°C; nuclear foci per nucleus; also done after HDAC inhibitors, SXT1596 and siRNA/shRNA against SS18-SSX.
UniProt Q04724, sequence (Q04724 whole entry): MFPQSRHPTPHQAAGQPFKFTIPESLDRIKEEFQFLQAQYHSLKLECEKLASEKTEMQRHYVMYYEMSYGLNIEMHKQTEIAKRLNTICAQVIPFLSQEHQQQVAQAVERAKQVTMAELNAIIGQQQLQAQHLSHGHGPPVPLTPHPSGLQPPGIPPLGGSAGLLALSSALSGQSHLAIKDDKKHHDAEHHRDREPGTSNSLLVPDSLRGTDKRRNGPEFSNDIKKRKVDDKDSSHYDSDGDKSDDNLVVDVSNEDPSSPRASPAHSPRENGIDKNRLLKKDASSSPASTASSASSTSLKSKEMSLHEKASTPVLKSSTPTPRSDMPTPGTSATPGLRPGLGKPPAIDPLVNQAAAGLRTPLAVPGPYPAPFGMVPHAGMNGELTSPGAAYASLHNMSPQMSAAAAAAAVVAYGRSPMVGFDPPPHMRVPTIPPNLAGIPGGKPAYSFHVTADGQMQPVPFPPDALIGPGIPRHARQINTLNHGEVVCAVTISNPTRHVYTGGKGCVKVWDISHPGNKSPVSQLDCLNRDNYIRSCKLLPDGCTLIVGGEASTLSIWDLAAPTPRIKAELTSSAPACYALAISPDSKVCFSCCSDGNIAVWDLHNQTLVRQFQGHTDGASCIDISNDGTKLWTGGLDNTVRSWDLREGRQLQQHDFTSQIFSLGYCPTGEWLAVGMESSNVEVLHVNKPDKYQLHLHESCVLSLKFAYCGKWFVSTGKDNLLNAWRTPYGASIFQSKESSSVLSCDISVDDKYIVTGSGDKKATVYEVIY

With “SS18-SSX2 fusion oncoprotein (natural protein)”, the fold PLA signal over control cell lines is > 10 fold.
The figure for “SS18-SSX1 fusion oncoprotein (natural protein)” is > 10 fold.
